Measured values as given in the supplement of paper PMC9170038.

What was measured:
MS2 coat protein [1] = experiment: apparent KD of MS2 coat protein, switch OFF state (with FMN for OFF switches, without FMN for ON switches); designed switch direction (-1 OFF switch, 1 ON switch): 1; higher = weaker reporter binding; details: FMN input: 0 or 200 uM; Eterna round: R93 (includes R88 designs)
Summary of the method: (§1)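 The designed RNA switches were transcribed on-chip from Illumina sequencing clusters. In 100 mM Tris-HCl pH 7.5, 80 mM KCl and 4 mM MgCl2, without or with constant ligand, they were titrated with SNAP-549-labelled MS2 coat protein from 0.7 or 1.5 nM to 3 µM in twofold steps. Apparent KD is the per-design median of normalised cluster binding-curve fits.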

MS2 coat protein [2] = experiment: apparent KD of MS2 coat protein, switch ON state; designed switch direction (-1 OFF switch, 1 ON switch): 1; higher = weaker reporter binding; details: FMN input: 0 or 200 uM; Eterna round: R93 (includes R88 designs)
Summary of the method: as §1

| Sequence | apparent KD of MS2 coat protein (MS2 coat protein [1]) [nM] | apparent KD of MS2 coat protein (MS2 coat protein [2]) [nM] |
| --- | --- | --- |
| AAAUUACAUGAGGAUCACCCAUGUAGCGACGUUACAGGAUAUGUGGGUGAAAAUAGCAUGACAGAAGGGUACCGUA [SameState1 Malc#39] | 60.8 | 77 |
| AAAUUACAUGAGGAUCACCCAUGUUUAAAAAAUAUAGGAUAUGUAAAAAAAAAAAAAAAAACAGAAGGGUAAAAAA [I 'NO' this state well] | 25.4 | 25.1 |
| AACAAUCUAUCUGAGGAUAUAUGUCGAAAGACAUGAGGAUCACCCAUGUGAAAACAUGAAAAAUCAUAGAAGGCAGAUAGAUUGA [SS2: 1138] | 393 | 49 |
| AACAGACAUGAGGAUCACCCAUGUAGAAUUAUGGGAGGAUAUACAAAGACGAGAGUCAGAGUAGAAGGCCUAGGAU [salish99-ss1-166] | 63.4 | 22.8 |
| AACAGACAUGAGGAUCACCCAUGUAGGAUUAUGGGAGGAUAUACAAAGACGAGAGUCAGAGUAGAAGGCCUAGGAA [salish99-ss1-147] | 57.9 | 16.7 |
| AACAUACAUGAGGAUCACCCAUGUUCCGGCAGGUCAGGAUAUAUAUCGAAAGAGUUAUAAAUAGAAGGGACAUAAA [JR_SS001_Sub009] | 60.7 | 49.6 |
| AACCAACAUGAGGAUCACCCAUGUAGAAAUAUGGGAGGAUAUACAAACACGAAAGUGAAAGUAGAAGGCCUAAAAG [77%, Mat - Mod of Eli, 6] | 125 | 22.5 |
| AACUACAUUAUGAAGGAUAUCCACAUCUAGACAUGAGGAUCACCCAUGUAUACUUAGAUCAUACAGGAGAAGGUCAAGGGUGAUU [JR_SS002_Sub1208] | 131 | 172 |
| AAGAAACAUGAGGAUCACCCAUGUAAAAAUAUGGGAGGAUAUACAAGGACGUAAGUCAAGGUAGAAGGCCUAAGAA [Mat - Same State 1 - Meechl mod - D136] | 82.5 | 20.2 |
| AAGAAACAUGAGGAUCACCCAUGUAAAUUCGAGAGAGGAUAUCGUACAUGGAAGAUUCAACGAGAAGGCUCUAGAA [Same State 1.1 (Pariah 3, G boost at 31)] | 79.6 | 21 |
| AAGAAACAUGAGGAUCACCCAUGUAAGAUAAACACAGGAUAUGCAAAAGAAACAAAGAAAGCAGAAGGGUGAAGAA [Mat - Same State 1 - Tesla mod - 49] | 48.4 | 17.8 |
| AAGAAACAUGAGGAUCACCCAUGUAAGAUAAACACAGGAUAUGCGAAAAGAAACAAAGAAGCAGAAGGGUGAAGAA [Ex5 sub 1] | 35.7 | 17 |
| AAGAAACAUGAGGAUCACCCAUGUAAGAUAAACACAGGAUAUGCGAAAAGAAAGAAAGAAGCAGAAGGGUGAAGAA [Mat - Same State 1 - Tesla mod - 39] | 41.7 | 17.4 |
| AAGAAACAUGAGGAUCACCCAUGUAAGAUAAACACAGGAUAUGCGAAAAUAAACAAAGAAGCAGAAGGGUGAAGAA [Mat - Same State 1 - Tesla mod - 62] | 41.9 | 13.5 |
| AAGAAACAUGAGGAUCACCCAUGUAGAAAUAUGGGAGGAUAUACAAGGACGAGAGUCAAGGUAGAAGGCCUAAGAA [Mat - Same State 1 - Meechl mod - D134] | 111 | 17.6 |
| AAGAAACAUGAGGAUCACCCAUGUGAGAACAUGGGAGGAUAUACGAAGACGAAAGUCGAAGUAGAAGGCCUAAAAG [Garnet 80] | 24.9 | 243 |
| AAGAAACAUGAGGAUCACCCAUGUGAGAUAAACACAGGAUAUGCGAAAAUAAACAAAUAAGCAGAAGGGUGAAGAA [Mat - Same State 1 - Tesla mod - 68] | 74.8 | 32.9 |
| AAGAAACAUGAGGAUCACCCAUGUGAUAAUAUGGGAGGAUAUACAAGGACGUAAGUCAAGGUAGAAGGCCUAAGAA [Mat - Same State 1 - Meechl mod - D140] | 61.6 | 30.5 |
| AAGAAACAUGAGGAUCACCCAUGUGAUAAUAUGGGAGGAUAUACGAAGUCGAAAGUCGAAGUAGAAGGCCUAAGAA [Garnet 41] | 186 | 49 |

| Sequence | apparent KD of MS2 coat protein (MS2 coat protein [1]) [nM] | apparent KD of MS2 coat protein (MS2 coat protein [2]) [nM] |
| --- | --- | --- |
| AAGAAACAUGAGGAUCACCCAUGUGUAAAUAUGGGAGGAUAUACAAGGACGUAAGUCAAGGUAGAAGGCCUAAGAA [Mat - Same State 1 - Meechl mod - D137] | 319 | 29.4 |
| AAGAAAGAAACGCAGGAUAUGCAAAACAAAACAUGAGGAUCACCCAUGUCAAACAAACAAACAAAGCAGAAGGGCGAAAGAAAGAA [Same State 2 AA] | 21.3 | 18.1 |
| AAGAAAGUUUACGAGGAUAUGUUCCGCAGAACAUGAGGAUCACCCAUGUGAACACGAAGUGCGACGCAGAAGGCGUGAGCAAUGA [Isenmaqu] | 130 | 34.5 |
| AAGAUACAUGAGGAUCACCCAUGUUAAGAGAGAUGAGGAUAUCCGAAUUAAUUAAAUUAAGGAGAAGGCAUGAAAA [LROPPY Same State 1 - v02_deltaG=2.1] | 26.9 | 18.2 |
| AAGCAACAUGAGGAUCACCCAUGUAGCAGGGUCAGAGGAUAUUUGAGCUUGGUAAGGGUUAAAGAAGGUUGAUAAA [Alabeti] | 55.5 | 138 |
| AAUAAACAUGAGGAUCACCCAUGUCGGUAAAGUCAAGGAUAUGGGACUGGGAUUAAAGUGCCAGAAGGUGAAAAUA [Raxela] | 351 | 122 |
| AAUAAGACUAGCAAGGAUAUCGAAAACGAGACAUGAGGAUCACCCAUGUAACAAGUAUAAGUAUACGAGAAGGUGCAGGGUGUAA [JR_SS002_Sub302] | 36.9 | 174 |
| AAUAAGACUAGCAAGGAUAUCGAAAACGAGACAUGAGGAUCACCCAUGUAACGAGUAUAAGUAUACGAGAAGGUGCAGGGUGAAA [JR_SS002_Sub303] | 86.7 | 75 |
| AAUACACAUGGUCAGGAUAUCGCAGCUAGGACAUGAGGAUCACCCAUGUAGCAUGUAACUGAAACCGAGAAGGGACAGGGUGAUC [JR_SS002_Sub412] | 85.1 | 61.4 |
| AAUACACAUGGUCAGGAUAUCGCAGCUAGGACAUGAGGAUCACCCAUGUCGUACGUAAAAGUAAAUGAGAAGGGACAGGGUGACC [JR_SS002_Sub407] | 30 | 37.8 |
| AAUAUACAUGAGGAUCACCCAUGUGAAAAUAUGGAAGGAUAUCGUAAAAAAAAAAAAAAACGAGAAGGUCCAAAAA [SS! 1 MT 14] | 30.2 | 18.7 |
| AAUAUAUUAAGUGAGGAUAUCAAGAAAAAAACAUGAGGAUCACCCAUGUGGGAAACACGGUAGGGUGAGAAGGUACUUAAUAUAU [Samwise Clockwise 20 - Jieux - Same State 2] | 27.6 | 504 |
| AAUAUAUUAAGUGAGGAUAUCGAGGAAAAAACAUGAGGAUCACCCAUGUGGGAAACCUGGUCGGGUGAGAAGGCACUUAAUAUAU [Samwise Clockwise 26 - Jieux - Same State 2] | 76.7 | 19.8 |
| ACAAAACAUGAGGAUCACCCAUGUGAGAACAUGAAAGGAUAUACUAGGACGAGAGUCAAUGUAGAAGGUUCUAGAA [SS - 1] | 39 | 34.6 |
| ACAAGGCUACACUAGGAUAUGGGUGUCUAAACAUGAGGAUCACCCAUGUGAUGGCAAAACAAAGCUCAGAAGGAGUCGUAGCCCA [Anvemais] | 27.4 | 14.7 |
| ACCAGGAAGAGAGAGGAUAUCCAAAGGAAAACAUGAGGAUCACCCAUGUAAAAGGUAGGAAAUUGGGAGAAGGCUCAAGAGAGAG [salish99-ss2-101] | 30.1 | 26.7 |
| ACGGCACAUGAGGAUCACCCAUGUGCCGAGAGGCGAGGAUAUCGAAAAAAAAAAAAAAAACGAGAAGGCGCGAGAA [SameState1NO] | 11.1 | 12.6 |
| ACUACACAUGAGGAUCACCCAUGUCAGGUGGGACUAGGAUAUUAUAAACCAGAGUAAAAAUAAGAAGGAGUAGAAA [JR_SS001_Sub308] | 46.6 | 51.8 |
| ACUUCACAUGAGGAUCACCCAUGUCAGGCCGGACUAGGAUAUUAUAAACCAGAGUAAAAAUAAGAAGGAGUAGGAA [JR_SS001_Sub311] | 75.2 | 67.9 |
